Test results reported in article PMC9458429.
pKd: −log10 of the molar value.

Assays:
Experiment in all cases: filter binding
[1] = system: 30S ribosomal subunit (Escherichia coli MRE600); details: Filter binding: 50 nM 32P-RNA in TAKM5 buffer (composition not given), 15 min at 37 C, nitrocellulose filtration, fluorescence titrations: pyrene, ex 341 nm …
[2] = system: 70S ribosome (Escherichia coli MRE600); details: Filter binding: 50 nM 32P-RNA in TAKM5 buffer (composition not given), 15 min at 37 C, nitrocellulose filtration, fluorescence titrations: pyrene, ex 341 nm …
[3] = system: 40S ribosomal subunit ((HeLa cells)); details: Filter binding: 50 nM 32P-RNA in TAKM5 buffer (composition not given), 15 min at 37 C, nitrocellulose filtration; fluorescence titrations: pyrene, ex 341 nm …

| Sequence | pKd [1] | pKd [2] | other results |
| --- | --- | --- | --- |
| AAAGCAAAAAUGUGAUCUUGCUUGUAAAUACAAUUUUGAGAGGUUAAUAAAUUACAAGUAGUGCUAUUUUUGUAUUUAGGUUAGCUAUUUAGCUUUACGUUCCAGGAUGCCUAGUGGCAGCCCCACAAUAUCCAGGAAGCCCUCUCUGCGGUUUUUCAGAUUAGGUAGUCGAAAAACCUAAGAAAUUUACCUGCUACAUUUCAAGAUAAA [CrPV IGR IRES WT] | 6.96 | 7.16 | pKd [3]: 7.85 |
| AAAGCAAAAAUGUGAUCUUGCUUGUAAAUACAAUUUUGAGAGGUUAAUAAAUUACAAGUAGUGCUAUUUUUGUAUUUAGGUUAGCUAUUUAGCUUUACGUUCCAGGAUGCCUAGUGGCAGCCCCACAAUAUCCAGGAAGCCCUCUCUGCGGUUUUUCAGAUUAGGUAGUCGAAAAACCUAAGAAAUUUAGGUGCUACAUUUCAAGAUAAA [CrPV IGR IRES PK1_K/O] | 7.26 | 7.04 | pKd [3]: 8.40 |
| AAAGCAAAAAUGUGAUCUUGCUUGUAAAUACAAUUUUGAGAGGUUAAUAAAUUACAAGUAGUGCUAUUUUUGUAUUUAGGUUAGCUAUUUAGCUUUACGUUCCAGGAUGCCUAGUGGCAGCCCCACAAUAUCCAGGAAGCGGAGAGUGCGGUUUUUCAGAUUAGGUAGUCGAAAAACCUAAGAAAUUUACCUGCUACAUUUCAAGAUAAA [CrPV IGR IRES PK2_K/O] | 7.13 | 7.00 | – |
| AAAGCAAAAAUGUGAUCUUGCUUGUAAAUACAAUUUUGAGAGGUUAAUAAAUUACAAGUAGUGCUAUUUUUGUAUUUAGGUUAGCUAUUUAGCUUUACGUUCCAGGAUGCCUAGUGGCAGCCCGUGAAUAUCCAGGAAGCCCUCUCUGCGGUUUUUCAGAUUAGGUAGUCGAAAAACCUAAGAAAUUUACCUGCUACAUUUCAAGAUAAA [CrPV IGR IRES PK3_K/O] | 7.32 | 7.05 | – |
| AAAGCAAAAAUGUGAUCUUGCUUGUAAAUACAAUUUUGAGAGGUUAAUAAAUUACAAGUAGUGCUAUUUUUGUAUUUAGGUUAGCUAUUUAGCUUUACGUUCCAGGAUGCCUAGUGGCAGCCGGUGAAUAUCCAGGAAGCCCUCUCUGCGGUUUUUCAGAUUAGGUAGUCGAAAAACCUAAGAAAUUUAGGUGCUACAUUUCAAGAUAAA [CrPV IGR IRES PK1+3_K/O] | 7.28 | 7.11 | – |
| AAAGCAAAAAUGUGAUCUUGCUUGUAAAUACAAUUUUGAGAGGUUAAUAAAUUACAAGUAGUGCUAUUUUUGUAUUUAGGUUAGCUAUUUAGCUUUACGUUCCAGGAUGCCUAGUGGCAGCCGGUGAAUAUCCAGGAAGCGGAGAGUGCGGUUUUUCAGAUUAGGUAGUCGAAAAACCUAAGAAAUUUAGGUGCUACAUUUCAAGAUAAA [CrPV IGR IRES PK1+2+3_K/O] | 7.32 | 7.10 | – |
| GAGCGGUUUCUGGAAUACUAUAUGUAAGUAUAGUGUUCUGGAGGCAUCAUUCUAUGGUUACCCAUCAUUAGAGGAAAUUUCCAAUAAACUCUGGUGUAAGGCUUAGAGUGAUGGUCGAGGUGCCCUAUUUAGGGUGAGGAGCCUCGGUGGCAGCCCCACCAAAUCCUCUAUUGGAUAGGAACAGCUGUACUGGGCAGUUACAGCAGUCGUAUGGUAACACAUGCGGCGUUCCGAAAUACCAUGCCUGGCGAUUCACAACAAGAA [IAPV IGR IRES WT] | 7.03 | 7.30 | – |
| GAGCGGUUUCUGGAAUACUAUAUGUAAGUAUAGUGUUCUGGAGGCAUCAUUCUAUGGUUACCCAUCAUUAGAGGAAAUUUCCAAUAAACUCUGGUGUAAGGCUUAGAGUGAUGGUCGAGGUGCCCUAUUUAGGGUGAGGAGCCUCGGUGGCAGCCCCACCAAAUCCUCUAUUGGAUAGGAACAGCUGUACUGGGCAGUUACAGCAGUCGUAUGGUAACACAUGCGGCGUUCCGAAAUACCAUGGGUGGCGAUUCACAACAAGAA [IAPV IGR IRES PK1_K/O] | 7.06 | 7.17 | – |
| GAGCGGUUUCUGGAAUACUAUAUGUAAGUAUAGUGUUCUGGAGGCAUCAUUCUAUGGUUACCCAUCAUUAGAGGAAAUUUCCAAUAAACUCUGGUGUAAGGCUUAGAGUGAUGGUCGAGGUGCCCUAUUUAGGGUGAGGAGCCUCGGUGGCAGCCCCACCAAAUCCUCUUAACCAUAGGAACAGCUGUACUGGGCAGUUACAGCAGUCGUAUGGUAACACAUGCGGCGUUCCGAAAUACCAUGCCUGGCGAUUCACAACAAGAA [IAPV IGR IRES PK2_K/O] | 7.09 | 7.23 | – |
| GAGCGGUUUCUGGAAUACUAUAUGUAAGUAUAGUGUUCUGGAGGCAUCAUUCUAUGGUUACCCAUCAUUAGAGGAAAUUUCCAAUAAACUCUGGUGUAAGGCUUAGAGUGAUGGUCGAGGUGCCCUAUUUAGGGUGAGGAGCCUCGGUGGCAGCCCCUGGAAAUCCUCUAUUGGAUAGGAACAGCUGUACUGGGCAGUUACAGCAGUCGUAUGGUAACACAUGCGGCGUUCCGAAAUACCAUGCCUGGCGAUUCACAACAAGAA [IAPV IGR IRES PK3_K/O] | 6.99 | 7.23 | – |
| GAGCGGUUUCUGGAAUACUAUAUGUAAGUAUAGUGUUCUGGAGGCAUCAUUCUAUGGUUACCCAUCAUUAGAGGAAAUUUCCAAUAAACUCUGGUGUAAGGCUUAGAGUGAUGGUCGAGGUGCCCUAUUUAGGGUGAGGAGCCUCGGUGGCAGCCCCUGGAAAUCCUCUAUUGGAUAGGAACAGCUGUACUGGGCAGUUACAGCAGUCGUAUGGUAACACAUGCGGCGUUCCGAAAUACCAUGGGUGGCGAUUCACAACAAGAA [IAPV IGR IRES PK1+3_K/O] | 7.10 | 7.19 | – |
| GAGCGGUUUCUGGAAUACUAUAUGUAAGUAUAGUGUUCUGGAGGCAUCAUUCUAUGGUUACCCAUCAUUAGAGGAAAUUUCCAAUAAACUCUGGUGUAAGGCUUAGAGUGAUGGUCGAGGUGCCCUAUUUAGGGUGAGGAGCCUCGGUGGCAGCCCCUGGAAAUCCUCUUAACCAUAGGAACAGCUGUACUGGGCAGUUACAGCAGUCGUAUGGUAACACAUGCGGCGUUCCGAAAUACCAUGGGUGGCGAUUCACAACAAGAA [IAPV IGR IRES PK1+2+3_K/O] | 7.14 | 7.14 | – |
| GCGCGGAUGCUCAGUCGGUAGAGCAGGGGAUUGAAAAUCCCCGUGUCCUUGGUUCGAUUCCGAGUCCGCGCACCA [tRNAPhe] | – | – | pKd ([1]; only 10% bound): 7.46 |
| GGAUACGCACAAUAAGGCUAUUGUACGUAUGCAAAUUAAUAAUAAAGGAGAGUAGCAAUGUCAUUCGAAUUACCUGCACUACCAUAUGCUAAAGAUGCUCUGGCACCGCACAUUUCUGCGG [sodB 5' UTR RNA] | – | – | pKd ([1]; 41% bound): 7.89; pKd ([2]; 56% bound): 7.33 |
| GGUACGAGUAGAAUACUGCCGCUUAACGUCGCGUAAAUUGUUUAACACUUUGCGUAACGUACACUGGGAUCGCUGAAUUAGAGAUCGGCGUCCUUUCAUUCUAUAUACUUUGGAGUUUUAAAAUGUCUCAAGUACUGAAGCAACAGCUAAAAUCGUUUCUGAGUUUGGUCGUGACGCAAACGACACC [rpsO 5' UTR RNA] | – | – | pKd ([1]; 39% bound): 8.00; pKd ([2]; 44% bound): 7.03 |
